Data published in patent US20140205597A1 (published 2014).

Tests used:
[1] = target: T1, purified interference factor(s) from serum of Donor C; experiment: Biacore, immobilized interference factor
T1 construct: text names Donors 8, 19 and 30

[2] = target: T2, purified interference factor(s) from serum of Donor A; experiment: Biacore, immobilized interference factor
T2 construct: text names Donors 8, 19 and 30

[3] = target: T3, purified interference factor(s) from serum of Donor B; experiment: Biacore, immobilized interference factor
T3 construct: text names Donors 8, 19 and 30

[4] = target: T4, monoclonal antibody 21-4-3; experiment: Biacore, captured 21-4-3
T4 construct: mouse IgG1 heavy chain, kappa light chain; also called mAb21-4-3; produced by hybridoma ABH0015 (LMBP-9680-CB)
Experimental: Binding measurements were performed using a Biacore T100 using a CM5 T120416 sensor chip, with running buffer HBS-EP+, 25° C. […] The anti-mouse IgG used was a polyclonal rabbit anti-mouse IgG antibodies reacting with all IgG subclasses, IgA and IgM (GE Healthcare; Cat#BR-1008-38; Lot#10056316). Immobilisation of the anti-mouse IgG was performed using manual amine coupling using a 7 minute injection of EDC/NHS for activation and a 7 minute injection of 1M ethanolamine HCl pH 8.5 for deactivation (Biacore, amine coupling kit).

cMet/Fc = target: T5, cMet/Fc (UniProt P08581 25-932); experiment: HGF-competition Alphascreen, monovalent form
T5 construct: not shown: Fc part not specified
T5 sequence (P08581 25-932): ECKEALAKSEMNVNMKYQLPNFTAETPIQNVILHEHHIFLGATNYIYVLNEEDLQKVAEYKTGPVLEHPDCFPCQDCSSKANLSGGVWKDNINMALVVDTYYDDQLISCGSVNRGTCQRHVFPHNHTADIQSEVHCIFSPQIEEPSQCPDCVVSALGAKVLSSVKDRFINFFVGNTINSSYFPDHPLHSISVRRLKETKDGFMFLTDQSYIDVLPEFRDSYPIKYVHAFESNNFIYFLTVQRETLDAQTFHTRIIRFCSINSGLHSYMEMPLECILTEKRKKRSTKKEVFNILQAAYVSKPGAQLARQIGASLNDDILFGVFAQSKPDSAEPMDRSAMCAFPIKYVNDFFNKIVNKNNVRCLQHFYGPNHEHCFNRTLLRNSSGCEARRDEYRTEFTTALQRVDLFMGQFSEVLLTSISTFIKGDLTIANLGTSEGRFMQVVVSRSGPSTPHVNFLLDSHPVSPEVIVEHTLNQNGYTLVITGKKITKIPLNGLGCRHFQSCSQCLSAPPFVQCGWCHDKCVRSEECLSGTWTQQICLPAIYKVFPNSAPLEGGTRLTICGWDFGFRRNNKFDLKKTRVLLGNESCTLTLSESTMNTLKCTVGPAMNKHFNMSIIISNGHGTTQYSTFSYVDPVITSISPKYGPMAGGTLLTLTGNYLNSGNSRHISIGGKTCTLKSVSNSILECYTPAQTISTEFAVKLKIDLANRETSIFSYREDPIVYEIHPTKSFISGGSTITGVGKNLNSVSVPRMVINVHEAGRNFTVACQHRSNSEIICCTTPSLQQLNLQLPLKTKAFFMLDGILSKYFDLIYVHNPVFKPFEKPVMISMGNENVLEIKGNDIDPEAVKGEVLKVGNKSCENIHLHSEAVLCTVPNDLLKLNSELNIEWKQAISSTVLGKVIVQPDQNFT

Row | Binder | binding vs Reference Sequence (=100%) [1] | binding vs Reference Sequence (=100%) [2] | binding vs Reference Sequence (=100%) [3] | binding vs Reference Sequence (=100%) [4] | IC50 (cMet/Fc)
1 | SEQ ID NO 77 (VHH, C-terminal: A) VHH: EVQLVESGGGLVQPGGSLRLSCAASRSIGRLDRMGWYRHRPGEPRELVATITGGSSINYGDSVKGRFTISIDNSKNTVYLQMNSLRPEDTAVYYCNFNKYVTSRDTWGQGTLVTVSS | 13% | 2% | 12% | 1% | 
2 | SEQ ID NO 88 (VHH, C-terminal: A; L11S, T110Q) VHH: EVQLVESGGGSVQPGGSLRLSCAASRSIGRLDRMGWYRHRPGEPRELVATITGGSSINYGDSVKGRFTISIDNSKNTVYLQMNSLRPEDTAVYYCNFNKYVTSRDTWGQGTLVQVSS | 11% | 1% | 5% | 1% | 
3 | SEQ ID NO 75 (VHH, C-terminal: AA) VHH: EVQLVESGGGLVQPGGSLRLSCAASRSIGRLDRMGWYRHRPGEPRELVATITGGSSINYGDSVKGRFTISIDNSKNTVYLQMNSLRPEDTAVYYCNFNKYVTSRDTWGQGTLVTVSS | 16% | 1% | 11% | 1% | 
4 | SEQ ID NO 76 (VHH, C-terminal: GGG) VHH: EVQLVESGGGLVQPGGSLRLSCAASRSIGRLDRMGWYRHRPGEPRELVATITGGSSINYGDSVKGRFTISIDNSKNTVYLQMNSLRPEDTAVYYCNFNKYVTSRDTWGQGTLVTVSS | 20% | 2% | 17% | 2% | 
5 | SEQ ID NO 79 (VHH, C-terminal: GG) VHH: EVQLVESGGGLVQPGGSLRLSCAASRSIGRLDRMGWYRHRPGEPRELVATITGGSSINYGDSVKGRFTISIDNSKNTVYLQMNSLRPEDTAVYYCNFNKYVTSRDTWGQGTLVTVSS | 13% | 1% | 17% | 2% | 
6 | A007901255, monovalent form (VHH, anti-c-MET Nanobody) VHH: DVQLVESGGGLVQPGGSLRLSCAASGFTFDDYAIGWFRQAPGEEREGVSSISSTYGLTYYADSVKGRFTISSDNSKNTVYLQMNSLRPEDTAVYYCAATPIGLIGLDAYEYDYWGQGTLVTVSS |  |  |  |  | 0.091 nM
7 | A007901256, monovalent form (VHH, anti-c-MET Nanobody) VHH: DVQLVESGGGLVQPGGSLRLSCAASGFAFDDYAIGWFRQAPGEEREGVSSISSTYGLTYYADSVKGRFTISSDNSKNTVYLQMNSLRPEDTAVYYCAATPIGLIGLDAYEYDYWGQGTLVTVSS |  |  |  |  | 0.048 nM
8 | A007901259, monovalent form (VHH, anti-c-MET Nanobody) VHH: DVQLVESGGGLVQPGGSLRLSCAASGFTFDDYAIGWFRQAPGEERLGVSSISSTYGLTYYADSVKGRFTISSDNSKNTVYLQMNSLRPEDTAVYYCAATPIGLIGLDAYEYDYWGQGTLVTVSS |  |  |  |  | 0.043 nM
9 | A007901260, monovalent form (VHH, anti-c-MET Nanobody) VHH: DVQLVESGGGLVQPGGSLRLSCAASGFAFDDYAIGWFRQAPGEERLGVSSISSTYGLTYYADSVKGRFTISSDNSKNTVYLQMNSLRPEDTAVYYCAATPIGLIGLDAYEYDYWGQGTLVTVSS |  |  |  |  | 0.035 nM
